# Source: patent US20160272693A1 (ZEALAND PHARMA A S, published 2016)
# *1 amine or outer side, *2 acyl side, *3 side chain or, on linkers, in order; H or OH if unused. Bridges are numbered along the chain shown (N, C = ends). [ ]: non-standard residue; d: D form. The star is where a group is joined. C20 diacid = O=C(O)CCCCCCCCCCCCCCCCCCC(=O)*; γGlu = O=C(O)[C@H](CCC(=O)[*:2])N[*:1]; Hyp = O=C(O)[C@@H]1C[C@@H](O)CN1; NMeI = CC[C@H](C)[C@H](NC)C(=O)O; Aad = N[C@@H](CCCC(=O)O)C(=O)O; Orn = NCCC[C@H](N)C(=O)O; Sar = CNCC(=O)O
# B1: [19CD]-isoGlu-R-C( )-GTAT-C( )-ATERLADFLQRSSF-Gly(Me)-A-Ile(Me)-LSSTEVGSNT-Hyp-NH2 (Compd. 54) (peptide)
# peptide: {C20 diacid}-[γGlu]RCGTATCATERLADFLQRSSF[Sar]A[NMeI]LSSTEVGSNT[Hyp]-NH2
# modifications: disulfide 3-8
# SMILES: CC[C@H](C)[C@@H](C(=O)N[C@@H](CC(C)C)C(=O)N[C@@H](CO)C(=O)N[C@@H](CO)C(=O)N[C@H](C(=O)N[C@@H](CCC(=O)O)C(=O)N[C@H](C(=O)NCC(=O)N[C@@H](CO)C(=O)N[C@@H](CC(N)=O)C(=O)N[C@H](C(=O)N1C[C@H](O)C[C@H]1C(N)=O)[C@@H](C)O)C(C)C)[C@@H](C)O)N(C)C(=O)[C@H](C)NC(=O)CN(C)C(=O)[C@H](Cc1ccccc1)NC(=O)[C@H](CO)NC(=O)[C@H](CO)NC(=O)[C@H](CCCNC(=N)N)NC(=O)[C@H](CCC(N)=O)NC(=O)[C@H](CC(C)C)NC(=O)[C@H](Cc1ccccc1)NC(=O)[C@H](CC(=O)O)NC(=O)[C@H](C)NC(=O)[C@H](CC(C)C)NC(=O)[C@H](CCCNC(=N)N)NC(=O)[C@H](CCC(=O)O)NC(=O)[C@@H](NC(=O)[C@H](C)NC(=O)[C@@H]1CSSC[C@H](NC(=O)[C@H](CCCNC(=N)N)NC(=O)CC[C@H](NC(=O)CCCCCCCCCCCCCCCCCCC(=O)O)C(=O)O)C(=O)NCC(=O)N[C@@H]([C@@H](C)O)C(=O)N[C@@H](C)C(=O)N[C@@H]([C@@H](C)O)C(=O)N1)[C@@H](C)O
# B2: [19CD]-isoGlu-R-C( )-PTAT-C( )-ATDRLAHFLQRSSF-Gly(Me)-A-Ile(Me)-LSSTDVGSNT-Hyp-NH2 (Compd. 59) (peptide)
# peptide: {C20 diacid}-[γGlu]RCPTATCATDRLAHFLQRSSF[Sar]A[NMeI]LSSTDVGSNT[Hyp]-NH2
# modifications: disulfide 3-8
# SMILES: CC[C@H](C)[C@@H](C(=O)N[C@@H](CC(C)C)C(=O)N[C@@H](CO)C(=O)N[C@@H](CO)C(=O)N[C@H](C(=O)N[C@@H](CC(=O)O)C(=O)N[C@H](C(=O)NCC(=O)N[C@@H](CO)C(=O)N[C@@H](CC(N)=O)C(=O)N[C@H](C(=O)N1C[C@H](O)C[C@H]1C(N)=O)[C@@H](C)O)C(C)C)[C@@H](C)O)N(C)C(=O)[C@H](C)NC(=O)CN(C)C(=O)[C@H](Cc1ccccc1)NC(=O)[C@H](CO)NC(=O)[C@H](CO)NC(=O)[C@H](CCCNC(=N)N)NC(=O)[C@H](CCC(N)=O)NC(=O)[C@H](CC(C)C)NC(=O)[C@H](Cc1ccccc1)NC(=O)[C@H](Cc1c[nH]cn1)NC(=O)[C@H](C)NC(=O)[C@H](CC(C)C)NC(=O)[C@H](CCCNC(=N)N)NC(=O)[C@H](CC(=O)O)NC(=O)[C@@H](NC(=O)[C@H](C)NC(=O)[C@@H]1CSSC[C@H](NC(=O)[C@H](CCCNC(=N)N)NC(=O)CC[C@H](NC(=O)CCCCCCCCCCCCCCCCCCC(=O)O)C(=O)O)C(=O)N2CCC[C@H]2C(=O)N[C@@H]([C@@H](C)O)C(=O)N[C@@H](C)C(=O)N[C@@H]([C@@H](C)O)C(=O)N1)[C@@H](C)O
# B3: [19CD]-isoGlu-R-C( )-NTAT-C( )-ATQRLAHFL-Aad-RSSF-Gly(Me)-A-Ile(Me)-LSSTEVGSNT-Hyp-NH2 (Compd. 50) (peptide)
# peptide: {C20 diacid-γGlu}-RCNTATCATQRLAHFL[Aad]RSSF[Sar]A[NMeI]LSSTEVGSNT[Hyp]-NH2
# modifications: disulfide 2-7
# SMILES: CC[C@H](C)[C@@H](C(=O)N[C@@H](CC(C)C)C(=O)N[C@@H](CO)C(=O)N[C@@H](CO)C(=O)N[C@H](C(=O)N[C@@H](CCC(=O)O)C(=O)N[C@H](C(=O)NCC(=O)N[C@@H](CO)C(=O)N[C@@H](CC(N)=O)C(=O)N[C@H](C(=O)N1C[C@H](O)C[C@H]1C(N)=O)[C@@H](C)O)C(C)C)[C@@H](C)O)N(C)C(=O)[C@H](C)NC(=O)CN(C)C(=O)[C@H](Cc1ccccc1)NC(=O)[C@H](CO)NC(=O)[C@H](CO)NC(=O)[C@H](CCCNC(=N)N)NC(=O)[C@H](CCCC(=O)O)NC(=O)[C@H](CC(C)C)NC(=O)[C@H](Cc1ccccc1)NC(=O)[C@H](Cc1c[nH]cn1)NC(=O)[C@H](C)NC(=O)[C@H](CC(C)C)NC(=O)[C@H](CCCNC(=N)N)NC(=O)[C@H](CCC(N)=O)NC(=O)[C@@H](NC(=O)[C@H](C)NC(=O)[C@@H]1CSSC[C@H](NC(=O)[C@H](CCCNC(=N)N)NC(=O)CC[C@H](NC(=O)CCCCCCCCCCCCCCCCCCC(=O)O)C(=O)O)C(=O)N[C@@H](CC(N)=O)C(=O)N[C@@H]([C@@H](C)O)C(=O)N[C@@H](C)C(=O)N[C@@H]([C@@H](C)O)C(=O)N1)[C@@H](C)O
# B4: [19CD]-isoGlu-R-C( )-GTAT-C( )-ATERLAHFLQRSSF-Gly(Me)-A-Ile(Me)-LSSTEVGS-Aad-T-Hyp-NH2 (Compd. 53) (peptide)
# peptide: {C20 diacid}-[γGlu]RCGTATCATERLAHFLQRSSF[Sar]A[NMeI]LSSTEVGS[Aad]T[Hyp]-NH2
# modifications: disulfide 3-8
# SMILES: CC[C@H](C)[C@@H](C(=O)N[C@@H](CC(C)C)C(=O)N[C@@H](CO)C(=O)N[C@@H](CO)C(=O)N[C@H](C(=O)N[C@@H](CCC(=O)O)C(=O)N[C@H](C(=O)NCC(=O)N[C@@H](CO)C(=O)N[C@@H](CCCC(=O)O)C(=O)N[C@H](C(=O)N1C[C@H](O)C[C@H]1C(N)=O)[C@@H](C)O)C(C)C)[C@@H](C)O)N(C)C(=O)[C@H](C)NC(=O)CN(C)C(=O)[C@H](Cc1ccccc1)NC(=O)[C@H](CO)NC(=O)[C@H](CO)NC(=O)[C@H](CCCNC(=N)N)NC(=O)[C@H](CCC(N)=O)NC(=O)[C@H](CC(C)C)NC(=O)[C@H](Cc1ccccc1)NC(=O)[C@H](Cc1c[nH]cn1)NC(=O)[C@H](C)NC(=O)[C@H](CC(C)C)NC(=O)[C@H](CCCNC(=N)N)NC(=O)[C@H](CCC(=O)O)NC(=O)[C@@H](NC(=O)[C@H](C)NC(=O)[C@@H]1CSSC[C@H](NC(=O)[C@H](CCCNC(=N)N)NC(=O)CC[C@H](NC(=O)CCCCCCCCCCCCCCCCCCC(=O)O)C(=O)O)C(=O)NCC(=O)N[C@@H]([C@@H](C)O)C(=O)N[C@@H](C)C(=O)N[C@@H]([C@@H](C)O)C(=O)N1)[C@@H](C)O
# B5: [19CD]-isoGlu-R-C( )-GTAT-C( )-ATERLAHFLQRSSF-Gly(Me)-A-Ile(Me)-LSSTEVGSGT-Hyp-NH2 (Compd. 52) (peptide)
# peptide: {C20 diacid}-[γGlu]RCGTATCATERLAHFLQRSSF[Sar]A[NMeI]LSSTEVGSGT[Hyp]-NH2
# modifications: disulfide 3-8
# SMILES: CC[C@H](C)[C@@H](C(=O)N[C@@H](CC(C)C)C(=O)N[C@@H](CO)C(=O)N[C@@H](CO)C(=O)N[C@H](C(=O)N[C@@H](CCC(=O)O)C(=O)N[C@H](C(=O)NCC(=O)N[C@@H](CO)C(=O)NCC(=O)N[C@H](C(=O)N1C[C@H](O)C[C@H]1C(N)=O)[C@@H](C)O)C(C)C)[C@@H](C)O)N(C)C(=O)[C@H](C)NC(=O)CN(C)C(=O)[C@H](Cc1ccccc1)NC(=O)[C@H](CO)NC(=O)[C@H](CO)NC(=O)[C@H](CCCNC(=N)N)NC(=O)[C@H](CCC(N)=O)NC(=O)[C@H](CC(C)C)NC(=O)[C@H](Cc1ccccc1)NC(=O)[C@H](Cc1c[nH]cn1)NC(=O)[C@H](C)NC(=O)[C@H](CC(C)C)NC(=O)[C@H](CCCNC(=N)N)NC(=O)[C@H](CCC(=O)O)NC(=O)[C@@H](NC(=O)[C@H](C)NC(=O)[C@@H]1CSSC[C@H](NC(=O)[C@H](CCCNC(=N)N)NC(=O)CC[C@H](NC(=O)CCCCCCCCCCCCCCCCCCC(=O)O)C(=O)O)C(=O)NCC(=O)N[C@@H]([C@@H](C)O)C(=O)N[C@@H](C)C(=O)N[C@@H]([C@@H](C)O)C(=O)N1)[C@@H](C)O
# B6: [19CD]-isoGlu-R-C( )-GTAT-C( )-ATERLAHFLQRSSF-Gly(Me)-A-Ile(Me)-LSSTEVGS-Orn-T-Hyp-NH2 (Compd. 51) (peptide)
# peptide: {C20 diacid}-[γGlu]RCGTATCATERLAHFLQRSSF[Sar]A[NMeI]LSSTEVGS[Orn]T[Hyp]-NH2
# modifications: disulfide 3-8
# SMILES: CC[C@H](C)[C@@H](C(=O)N[C@@H](CC(C)C)C(=O)N[C@@H](CO)C(=O)N[C@@H](CO)C(=O)N[C@H](C(=O)N[C@@H](CCC(=O)O)C(=O)N[C@H](C(=O)NCC(=O)N[C@@H](CO)C(=O)N[C@@H](CCCN)C(=O)N[C@H](C(=O)N1C[C@H](O)C[C@H]1C(N)=O)[C@@H](C)O)C(C)C)[C@@H](C)O)N(C)C(=O)[C@H](C)NC(=O)CN(C)C(=O)[C@H](Cc1ccccc1)NC(=O)[C@H](CO)NC(=O)[C@H](CO)NC(=O)[C@H](CCCNC(=N)N)NC(=O)[C@H](CCC(N)=O)NC(=O)[C@H](CC(C)C)NC(=O)[C@H](Cc1ccccc1)NC(=O)[C@H](Cc1c[nH]cn1)NC(=O)[C@H](C)NC(=O)[C@H](CC(C)C)NC(=O)[C@H](CCCNC(=N)N)NC(=O)[C@H](CCC(=O)O)NC(=O)[C@@H](NC(=O)[C@H](C)NC(=O)[C@@H]1CSSC[C@H](NC(=O)[C@H](CCCNC(=N)N)NC(=O)CC[C@H](NC(=O)CCCCCCCCCCCCCCCCCCC(=O)O)C(=O)O)C(=O)NCC(=O)N[C@@H]([C@@H](C)O)C(=O)N[C@@H](C)C(=O)N[C@@H]([C@@H](C)O)C(=O)N1)[C@@H](C)O
# Molecular target: T1, human amylin receptor 3 (hAMYR3), hCTR2 co-expressed with human receptor activity modifying protein 3 (hRAMP3) (human, UniProt P30988 25-474; O60896 24-148)
# T1 sequence (looked up) 1: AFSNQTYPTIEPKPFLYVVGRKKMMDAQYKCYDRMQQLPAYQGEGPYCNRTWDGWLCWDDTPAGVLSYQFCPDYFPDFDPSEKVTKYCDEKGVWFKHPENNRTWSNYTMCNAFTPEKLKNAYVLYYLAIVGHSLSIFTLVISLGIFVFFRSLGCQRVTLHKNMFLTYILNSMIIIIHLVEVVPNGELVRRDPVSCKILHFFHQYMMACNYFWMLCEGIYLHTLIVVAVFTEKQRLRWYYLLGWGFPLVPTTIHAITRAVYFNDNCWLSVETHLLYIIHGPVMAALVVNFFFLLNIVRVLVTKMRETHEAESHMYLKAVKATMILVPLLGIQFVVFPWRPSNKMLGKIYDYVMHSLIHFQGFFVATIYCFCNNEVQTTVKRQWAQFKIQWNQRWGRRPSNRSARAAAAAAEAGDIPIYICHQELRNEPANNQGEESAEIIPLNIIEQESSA
# T1 sequence (looked up) 2: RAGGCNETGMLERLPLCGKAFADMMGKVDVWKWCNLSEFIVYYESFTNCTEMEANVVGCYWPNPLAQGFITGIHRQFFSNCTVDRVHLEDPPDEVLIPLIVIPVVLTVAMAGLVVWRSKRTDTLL
# Experiment: cell-based or functional assay
row,Binder,hAMYR3 EC50 (nM); cAMP induction [nM]
1,{C20 diacid-γGlu}-RCNTATCATERLAHFLQRSSF[Sar]A[NMeI]LSSTEVGSNT[Hyp]-NH2 (disulfide 2-7) [[19CD]-isoGlu-R-C( )-NTAT-C( )-ATERLAHFLQRSSF-Gly(Me)-A-Ile(Me)-LSSTEVGSNT-Hyp-NH2 (Compd. 56)],0.08
2,B1,0.14
3,B2,0.11
4,B3,0.19
5,B4,0.13
6,B5,0.09
7,B6,0.11
8,{C20 diacid}-[γGlu]RCNTATCATQRLAHFLQRSSF[Sar]A[NMeI]LSSTEVGSNT[Hyp]-NH2 (disulfide 3-8) [[19CD]-isoGlu-R-C( )-NTAT-C( )-ATQRLAHFLQRSSF-Gly(Me)-A-Ile(Me)-LSSTEVGSNT-Hyp-NH2 (Compd. 58)],0.1
